# What was measured:
# [1] = substrate: CC=O; assay: purified protein; type: biochemical, Homo sapiens; conditions: NAD+
# [2] = substrate: CC(=O)Oc1ccc([N+](=O)[O-])cc1; assay: purified protein
Protein,Km [1] [µM],Vmax [1] [µmol/min/mg],Km [2] [µM],Vmax [2] [µmol/min/mg]
ALDH2 (mitochondrial aldehyde dehydrogenase) (Homo sapiens) (protein) SAAATQAVPAPNQQPEVFCNQIFINNEWHDAVSRKTFPTVNPSTGEVICQVAEGDKEDVDKAVKAARAAFQLGSPWRRMDASHRGRLLNRLADLIERDRTYLAALETLDNGKPYVISYLVDLDMVLKCLRYYAGWADKYHGKTIPIDGDFFSYTRHEPVGVCGQIIPWNFPLLMQAWKLGPALATGNVVVMKVAEQTPLTALYVANLIKEAGFPPGVVNIVPGFGPTAGAAIASHEDVDKVAFTGSTEIGRVIQVAAGSSNLKRVTLELGGKSPNIIMSDADMDWAVEQAHFALFFNQGQCCCAGSRTFVQEDIYDEFVERSVARAKSRVVGNPFDSKTEQGPQVDETQFKKILGYINTGKQEGAKLLCGGGIAADRGYFIQPTVFGDVQDGMTIAKEEIFGPVMQILKFKTIEEVVGRANNSTYGLAAAVFTKDLDKANYLSQALQAGTVWVNCYDVFGAQSPFGGYKMSGSGRELGEYGLQAYTEVKTVTVKVPQKNS,0.33 ± 0.005,4 ± 0.03,0.18 ± 0.01,0.21
"ALDH1 (cytosolic aldehyde dehydrogenase, ALDH1A1) (Homo sapiens) (protein) SSSGTPDLPVLLTDLKIQYTKIFINNEWHDSVSGKKFPVFNPATEEELCQVEEGDKEDVDKAVKAARQAFQIGSPWRTMDASERGRLLYKLADLIERDRLLLATMESMNGGKLYSNAYLNDLAGCIKTLRYCAGWADKIQGRTIPIDGNFFTYTRHEPIGVCGQIIPWNFPLVMLIWKIGPALSCGNTVVVKPAEQTPLTALHVASLIKEAGFPPGVVNIVPGYGPTAGAAISSHMDIDKVAFTGSTEVGKLIKEAAGKSNLKRVTLELGGKSPCIVLADADLDNAVEFAHHGVFYHQGQCCIAASRIFVEESIYDEFVRRSVERAKKYILGNPLTPGVTQGPQIDKEQYDKILDLIESGKKEGAKLECGGGPWGNKGYFVQPTVFSNVTDEMRIAKEEIFGPVQQIMKFKSLDDVIKRANNTFYGLSAGVFTKDIDKAITISSALQAGTVWVNCYGVVSAQCPFGGFKMSGNGRELGEYGFHEYTEVKTVTVKISQKNS",200 ± 14,1.06 ± 0.02,0.69 ± 0.03,0.155

# Source: paper PMC2440601
